Target: aCD19A (anti-CD19-A192) Nanoworm
Test: SEC-MALS

stoichiometry N: 186
B1: aCD19A (anti-CD19-A192) Nanoworm (scFv, V domains shown)
VH: QVQLQQSGAELVRPGSSVKISCKASGYAFSSYWMNWVKQRPGQGLEWIGQIWPGDGDTNYNGKFKGKATLTADESSSTAYMQLSSLASEDSAVYFCARRETTTVGRYYYAMDYWGQGTTVTVSS
VL: DIQLTQSPASLAVSLGQRATISCKASQSVDYDGDSYLNWYQQIPGQPPKLLIYDASNLVSGIPPRFSGSGSGTDFTLNIHPVEKVDAATYHCQQSTEDPWTFGGGTKLEIK
